Laboratory results as given in article PMC6541444 (Science translational medicine, 2019).

Target: T1, recombinant mouse IL-2Ra (Sino Biological) (mouse, UniProt P01590 22-236)
T1 sequence (looked up): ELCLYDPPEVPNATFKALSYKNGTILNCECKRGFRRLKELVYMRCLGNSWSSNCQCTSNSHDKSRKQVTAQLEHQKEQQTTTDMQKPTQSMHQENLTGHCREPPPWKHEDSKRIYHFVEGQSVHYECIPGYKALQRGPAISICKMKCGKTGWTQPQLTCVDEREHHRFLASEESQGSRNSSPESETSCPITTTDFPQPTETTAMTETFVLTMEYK
Assay: ELISA

B1: mouse IL-2 (recombinant, unmodified) (ligand, UniProt P04351 21-169, looked up)
chain: APTSSSTSSSTAEAQQQQQQQQQQQQHLEQLLMDLQELLSRMENYRNLKLPRMLTFKFYLPKQATELKDLQCLEDELGPLRHVLDLTQSKSFQLEDAENFISNIRVTVVKLKGSDNTFECQFDDESATVVDFLRRWIAFCQSIISTSPQ
B1: binds.
